Measurements taken from paper PMC4109839, “Fibrin binds to collagen and provides a bridge for αVβ3 integrin-dependent contraction of collagen gels” (Biochemical Journal, 2014).

Key:
[1] = biological target: T1, PureCol native bovine dermal collagen type I (bovine, UniProt P02453 162-1217; P02465 80-1117); assay: ELISA; solid-phase assay: plates coated with 10 μg/ml native or denatured Col I, blocked with 2% BSA; biotinylated fibrinogen in 0.5% BSA in Ca2+- and Mg2+-free PBS pH 7.4, 2 h at 37°C; avidin-alkaline phosphatase; settings: both partners purified
T1 construct: collagen α1(I) chain, bovine (Bos taurus), from dermis; collagen α2(I) chain, bovine; Native triple helix; Prolines are in part hydroxylated in the tissue protein; also called Col I; native Col I; source: bought: Advanced Biomatrix (PureCol, 3 mg/ml)

[2] = biological target: T1, PureCol native bovine dermal collagen …; assay: SPR; Col I (PureCol bovine dermal and mouse-tail tendon) coupled to a BiaCore C1 chip; freshly dissolved, filtered fibrinogen in PBS passed over the chip, then wash-out; settings: both partners purified

T1 sequence (P02453 162-1217, chain 1 of 2): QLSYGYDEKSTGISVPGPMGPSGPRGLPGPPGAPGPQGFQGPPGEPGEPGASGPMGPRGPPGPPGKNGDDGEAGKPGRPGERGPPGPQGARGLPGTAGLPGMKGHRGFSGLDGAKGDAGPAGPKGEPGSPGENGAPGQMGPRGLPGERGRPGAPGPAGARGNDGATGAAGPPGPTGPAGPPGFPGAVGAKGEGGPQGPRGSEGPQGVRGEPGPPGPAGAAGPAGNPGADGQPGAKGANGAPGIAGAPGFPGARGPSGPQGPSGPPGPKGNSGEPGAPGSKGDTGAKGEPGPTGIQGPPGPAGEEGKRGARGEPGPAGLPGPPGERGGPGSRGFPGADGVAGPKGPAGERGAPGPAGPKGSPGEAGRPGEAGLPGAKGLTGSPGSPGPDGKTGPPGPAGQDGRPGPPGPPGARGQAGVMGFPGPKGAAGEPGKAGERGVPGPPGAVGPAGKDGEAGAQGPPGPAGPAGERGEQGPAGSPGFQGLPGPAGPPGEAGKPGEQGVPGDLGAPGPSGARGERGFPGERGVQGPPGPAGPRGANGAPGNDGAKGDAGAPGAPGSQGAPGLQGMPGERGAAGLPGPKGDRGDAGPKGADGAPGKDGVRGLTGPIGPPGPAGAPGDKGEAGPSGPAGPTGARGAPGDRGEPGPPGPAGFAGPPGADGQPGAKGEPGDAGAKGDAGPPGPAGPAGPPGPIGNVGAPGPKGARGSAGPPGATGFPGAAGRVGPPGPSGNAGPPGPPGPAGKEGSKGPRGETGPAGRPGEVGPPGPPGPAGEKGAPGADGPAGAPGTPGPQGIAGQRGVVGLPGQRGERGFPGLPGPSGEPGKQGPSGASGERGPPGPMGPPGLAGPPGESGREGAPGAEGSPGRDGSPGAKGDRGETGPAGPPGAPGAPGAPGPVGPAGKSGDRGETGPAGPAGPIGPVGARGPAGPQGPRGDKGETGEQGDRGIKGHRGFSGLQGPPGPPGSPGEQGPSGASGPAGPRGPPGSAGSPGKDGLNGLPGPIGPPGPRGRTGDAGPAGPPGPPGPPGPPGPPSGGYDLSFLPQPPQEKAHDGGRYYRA
T1 sequence (P02465 80-1117, chain 2 of 2): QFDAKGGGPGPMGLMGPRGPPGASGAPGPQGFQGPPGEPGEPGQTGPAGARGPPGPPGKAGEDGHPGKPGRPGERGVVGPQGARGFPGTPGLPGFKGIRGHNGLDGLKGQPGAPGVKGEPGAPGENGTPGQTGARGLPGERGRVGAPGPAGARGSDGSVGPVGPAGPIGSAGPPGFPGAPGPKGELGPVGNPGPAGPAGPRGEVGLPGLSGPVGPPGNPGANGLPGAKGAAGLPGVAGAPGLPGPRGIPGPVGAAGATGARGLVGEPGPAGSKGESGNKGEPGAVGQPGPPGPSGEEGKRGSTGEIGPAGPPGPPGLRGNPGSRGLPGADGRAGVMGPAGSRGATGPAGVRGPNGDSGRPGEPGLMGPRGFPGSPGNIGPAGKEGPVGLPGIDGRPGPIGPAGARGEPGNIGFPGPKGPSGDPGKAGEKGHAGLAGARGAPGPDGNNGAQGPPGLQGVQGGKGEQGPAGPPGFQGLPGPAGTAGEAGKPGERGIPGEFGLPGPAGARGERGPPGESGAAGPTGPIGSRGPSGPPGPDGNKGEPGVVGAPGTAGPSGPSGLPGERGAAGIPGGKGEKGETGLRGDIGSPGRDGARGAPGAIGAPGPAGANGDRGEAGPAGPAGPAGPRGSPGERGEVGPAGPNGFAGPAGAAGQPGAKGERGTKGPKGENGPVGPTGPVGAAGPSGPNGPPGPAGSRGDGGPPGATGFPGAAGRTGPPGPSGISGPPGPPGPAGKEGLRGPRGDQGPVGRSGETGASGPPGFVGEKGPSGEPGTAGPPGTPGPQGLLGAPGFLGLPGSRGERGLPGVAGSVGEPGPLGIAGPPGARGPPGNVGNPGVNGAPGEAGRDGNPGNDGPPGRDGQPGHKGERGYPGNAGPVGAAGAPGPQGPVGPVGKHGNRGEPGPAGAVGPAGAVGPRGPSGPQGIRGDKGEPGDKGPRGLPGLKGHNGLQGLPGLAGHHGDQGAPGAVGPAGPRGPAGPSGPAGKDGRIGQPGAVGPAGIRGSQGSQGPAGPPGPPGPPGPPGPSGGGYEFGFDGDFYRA

Binder	EC50 [1]	EC50 [2]
biotinylated human plasma fibrinogen (natural protein, biotin (biotin N-hydroxysuccinimide ester; which chains and residues not stated) | biotin (biotin N-hydroxysuccinimide ester; which chains and residues not stated) | biotin (biotin N-hydroxysuccinimide ester; which chains and residues not stated)) chain 1: ADSGEGDFLAEGGGVRGPRVVERHQSACKDSDWPFCSDEDWNYKCPSGCRMKGLIDEVNQDFTNRINKLKNSLFEYQKNNKDSHSLTTNIMEILRGDFSSANNRDNTYNRVSEDLRSRIEVLKRKVIEKVQHIQLLQKNVRAQLVDMKRLEVDIDIKIRSCRGSCSRALAREVDLKDYEDQQKQLEQVIAKDLLPSRDRQHLPLIKMKPVPDLVPGNFKSQLQKVPPEWKALTDMPQMRMELERPGGNEITRGGSTSYGTGSETESPRNPSSAGSWNSGSSGPGSTGNRNPGSSGTGGTATWKPGSSGPGSTGSWNSGSSGTGSTGNQNPGSPRPGSTGTWNPGSSERGSAGHWTSESSVSGSTGQWHSESGSFRPDSPGSGNARPNNPDWGTFEEVSGNVSPGTRREYHTEKLVTSKGDKELRTGKEKVTSGSTTTTRRSCSKTVTKTVIGPDGHKEVTKEVVTSEDGSDCPEAMDLGTLSGIGTLDGFRHRHPDEAAFFDTASTGKTFPGFFSPMLGEFVSETESRGSESGIFTNTKESSSHHPGIAEFPSRGKSSSYSKQFTSSTSYNRGDSTFESKSYKMADEAGSEADHEGTHSTKRGHAKSRPV chain 2: QGVNDNEEGFFSARGHRPLDKKREEAPSLRPAPPPISGGGYRARPAKAAATQKKVERKAPDAGGCLHADPDLGVLCPTGCQLQEALLQQERPIRNSVDELNNNVEAVSQTSSSSFQYMYLLKDLWQKRQKQVKDNENVVNEYSSELEKHQLYIDETVNSNIPTNLRVLRSILENLRSKIQKLESDVSAQMEYCRTPCTVSCNIPVVSGKECEEIIRKGGETSEMYLIQPDSSVKPYRVYCDMNTENGGWTVIQNRQDGSVDFGRKWDPYKQGFGNVATNTDGKNYCGLPGEYWLGNDKISQLTRMGPTELLIEMEDWKGDKVKAHYGGFTVQNEANKYQISVNKYRGTAGNALMDGASQLMGENRTMTIHNGMFFSTYDRDNDGWLTSDPRKQCSKEDGGGWWYNRCHAANPNGRYYWGGQYTWDMAKHGTDDGVVWMNWKGSWYSMRKMSMKIRPFFPQQ chain 3: YVATRDNCCILDERFGSYCPTTCGIADFLSTYQTKVDKDLQSLEDILHQVENKTSEVKQLIKAIQLTYNPDESSKPNMIDAATLKSRKMLEEIMKYEASILTHDSSIRYLQEIYNSNNQKIVNLKEKVAQLEAQCQEPCKDTVQIHDITGKDCQDIANKGAKQSGLYFIKPLKANQQFLVYCEIDGSGNGWTVFQKRLDGSVDFKKNWIQYKEGFGHLSPTGTTEFWLGNEKIHLISTQSAIPYALRVELEDWNGRTSTADYAMFKVGPEADKYRLTYAYFAGGDAGDAFDGFDFGDDPSDKFFTSHNGMQFSTWDNDNDKFEGNCAEQDGSGWWMNKCHAGHLNGVYYQGGTYSKASTPNGYDNGIIWATWKTRWYSMKKTTMKIIPFNRLTIGEGQQHHLGGAKQAGDV	~70 nM	–
human plasma fibrinogen (natural protein, fibrinogen Aα-chain, human, from plasma; fibrinogen Bβ-chain, human, from plasma; fibrinogen γ-chain, human, from plasma; In the gel contraction assays it was converted into fibrin by thrombin; also called unlabelled fibrinogen; non-biotinylated fibrinogen; source: bought: Sigma-Aldrich; copies: 2 + 2 + 2) chain 1: ADSGEGDFLAEGGGVRGPRVVERHQSACKDSDWPFCSDEDWNYKCPSGCRMKGLIDEVNQDFTNRINKLKNSLFEYQKNNKDSHSLTTNIMEILRGDFSSANNRDNTYNRVSEDLRSRIEVLKRKVIEKVQHIQLLQKNVRAQLVDMKRLEVDIDIKIRSCRGSCSRALAREVDLKDYEDQQKQLEQVIAKDLLPSRDRQHLPLIKMKPVPDLVPGNFKSQLQKVPPEWKALTDMPQMRMELERPGGNEITRGGSTSYGTGSETESPRNPSSAGSWNSGSSGPGSTGNRNPGSSGTGGTATWKPGSSGPGSTGSWNSGSSGTGSTGNQNPGSPRPGSTGTWNPGSSERGSAGHWTSESSVSGSTGQWHSESGSFRPDSPGSGNARPNNPDWGTFEEVSGNVSPGTRREYHTEKLVTSKGDKELRTGKEKVTSGSTTTTRRSCSKTVTKTVIGPDGHKEVTKEVVTSEDGSDCPEAMDLGTLSGIGTLDGFRHRHPDEAAFFDTASTGKTFPGFFSPMLGEFVSETESRGSESGIFTNTKESSSHHPGIAEFPSRGKSSSYSKQFTSSTSYNRGDSTFESKSYKMADEAGSEADHEGTHSTKRGHAKSRPVRGIHTSPLGKPSLSP chain 2: QGVNDNEEGFFSARGHRPLDKKREEAPSLRPAPPPISGGGYRARPAKAAATQKKVERKAPDAGGCLHADPDLGVLCPTGCQLQEALLQQERPIRNSVDELNNNVEAVSQTSSSSFQYMYLLKDLWQKRQKQVKDNENVVNEYSSELEKHQLYIDETVNSNIPTNLRVLRSILENLRSKIQKLESDVSAQMEYCRTPCTVSCNIPVVSGKECEEIIRKGGETSEMYLIQPDSSVKPYRVYCDMNTENGGWTVIQNRQDGSVDFGRKWDPYKQGFGNVATNTDGKNYCGLPGEYWLGNDKISQLTRMGPTELLIEMEDWKGDKVKAHYGGFTVQNEANKYQISVNKYRGTAGNALMDGASQLMGENRTMTIHNGMFFSTYDRDNDGWLTSDPRKQCSKEDGGGWWYNRCHAANPNGRYYWGGQYTWDMAKHGTDDGVVWMNWKGSWYSMRKMSMKIRPFFPQQ chain 3: YVATRDNCCILDERFGSYCPTTCGIADFLSTYQTKVDKDLQSLEDILHQVENKTSEVKQLIKAIQLTYNPDESSKPNMIDAATLKSRKMLEEIMKYEASILTHDSSIRYLQEIYNSNNQKIVNLKEKVAQLEAQCQEPCKDTVQIHDITGKDCQDIANKGAKQSGLYFIKPLKANQQFLVYCEIDGSGNGWTVFQKRLDGSVDFKKNWIQYKEGFGHLSPTGTTEFWLGNEKIHLISTQSAIPYALRVELEDWNGRTSTADYAMFKVGPEADKYRLTYAYFAGGDAGDAFDGFDFGDDPSDKFFTSHNGMQFSTWDNDNDKFEGNCAEQDGSGWWMNKCHAGHLNGVYYQGGTYSKASTPNGYDNGIIWATWKTRWYSMKKTTMKIIPFNRLTIGEGQQHHLGGAKQAGDV	–	~10 nM
